From patent US20140298544A1, “Engineered PEP carboxylase variants for improved plant productivity” (PIONEER HI BRED INTERNATIONAL INC, priority 2011, published 2014)
Read-outs that look alike come from different tables or passages of the source.

System: maize C4 PEPC
Experiment: Kinetic and regulatory properties of PEPC variants (expressed in E. coli)
Type: biochemical
Conditions: for PEP, no activators kcat/S0.5 / PEP, no activators kcat/S0.5 % wt / PEP, with activators kcat/S0.5 / kcat/S0.5 Fold incr. / PEP, with activators kcat/S0.5 % wt: PEP substrate; for PEP, no activators kcat/S0.5 % wt / PEP, with activators kcat/S0.5 % wt / Glc-6-P A0.5 % wt / Glycine A0.5 % wt / HCO3 kcat/S0.5 % wt / Malate Ki % wt / Ki for malate, in words / Vmax, in words / activation by glucose-6-phosphate, in words / activation by glycine, in words: relative to wild type; for kcat/S0.5 Fold incr.: with activators vs no activators; for HCO3 S0.5 / HCO3 kcat/S0.5 / HCO3 kcat/S0.5 % wt: bicarbonate substrate; for Ki / Malate Ki % wt: inhibitor malate
Text: Libraries of modified PEPC polynucleotides were generated using recursive sequence recombination methods (Stemmer, Proc. Natl. Acad. Sci USA 91:10747-10751; Ness, et. al., Nature Biotechnology 20:1251-1255), also known as gene shuffling methods. These libraries incorporated diversity from related PEPC enzymes and also incorporated other designed and random changes. The starting polynucleotide sequence in which the diversity was incorporated was the maize C4 PEPC as shown in SEQ ID NO: 25. Each PEPC variant was expressed in E. coli as a thioredoxin fusion using the pET 32 expression vector (Novagen) with the E. coli expression strain Rosetta gami 2 BL21 DE3 pLYS S. Cultures expressing the variants were grown in 96-well culture blocks, lysed, and then PEPC activity and PEPC protein abundance were determined. The variants with high specific activity were subjected to further rounds of shuffling, for a total of 3 rounds. Examples of nucleotide and amino acid sequences of PEPC variants obtained with this method are SEQ ID NO: 4 to 24.
Detailed kinetic studies of PEPC variants were done in accordance with methods known in the art. See, for example, Tovar-Mendez et al. (2000) Plant Physiol. 123: 149-160; Tover-Mendez et al. (1998) Biochem. J. 332: 633-642.
PEPC variants had several improved properties in comparison with wild type PEPC, including greater affinity (lower S0.5 values) with respect to the bicarbonate substrate, greater Kcat/S0.5 values with the bicarbonate or PEP substrates, greater activation (lower A0.5 values) with […] or glycine as activators and greater Ki values with malate as inhibitor.

[1] = activator Glc-6-P, read-out: Glc-6-P A0.5
[2] = activator glycine, read-out: Glycine A0.5

Molecule | PEP, no activators kcat/S0.5 | PEP, no activators kcat/S0.5 % wt | PEP, with activators kcat/S0.5 | kcat/S0.5 Fold incr. | PEP, with activators kcat/S0.5 % wt | Glc-6-P Vmax Fold incr (activator Glc-6-P) | EC50 [1] | Glc-6-P A0.5 % wt (activator Glc-6-P) | Glycine Vmax Fold incr (activator glycine) | EC50 [2] | Glycine A0.5 % wt (activator glycine) | HCO3 S0.5 | HCO3 kcat/S0.5 | HCO3 kcat/S0.5 % wt | Ki | Malate Ki % wt | Ki for malate, in words | Vmax, in words | activation by glucose-6-phosphate, in words | activation by glycine, in words
3F30-F12: maize C4 PEPC variant, 7 amino acid substitutions, SEQ ID NO: 11 (protein, shuffled variant) MASTKAPGPGEKHHSIDAQLRQLVPGKVSEDDKLIEYDALLVDRFLNILQDLHGPSLREFVQECYEVSADYEGKGDTTKLGELGAKLTGLAPADAILVASSILHMLNLANLAEEAQIAHRRRNSKLKKGGFADEGSATTESDIEETLKRLVSEVGKSPEEVFEALKNQTVDLVFTAHPTQSARRSLLQKNAGIRNCLTQLNAKDITDGDKQELDEALQREIQAAFRTDEIRRAQPTPQDEMRYGMSYIHETVWKGVPKFLRRVDTALKNIGINERLPYNVSLIRFSSWMGGDRDGNPRVTPEVTRDVCLLARMMAANLYIDQIEELMFELSMWRCNDELRVRAEELHSSSGSKVTKYYIEFWKQIPPNEPYRVILGHVRDKLYNTRERARHLLASGVSEISAESSFTSIEEFLEPLELCYKSLCDCGDKAIADGSLLDLLRQVFTFGLSLVKLDIRQESERHTDVIDAITTHLGIGSYREWSEDKRQEWLLSELRGKRPLLPPDLPQTDEIADVIGAFHVLAELPPDSFGPYIISMATAPSDVLAVELLQRECGIKQPLPVVPLFERLADLQSAPASVERLFSVDWYMDRIKGKQQVMVGYSDSGKDAGRLSAAWQLYKAQEEMAQVAKRYGVKLTLFHGRGGTVGRGGGPTHLAILSQPPDTINGSIRVTVQGEVIEFCFGEEHLCFQTLQRFTAATLEHGMHPPVSPKPEWRKLMDEMAVVATEEYRSVVVKEPRFVEYFRSATPETEYGRMNIGSRPAKRRPGGGITTLRAIPWIFSWTQTRFHLPVWLGVGAAFKFAIDKDVRNFQVLKEMYNEWPFFRVTLDLLEMIFAKGDPGIAGLYDELLVAEELKPFGKQLRDKYVETQQLLLQIAGHKDILEGDPFLKQGLVLRNPYITTLNVFQAYTLKRIRDPNFKVTPQPPLSKEFADENKPAGLVKLNPASEYPPGLEDTLILTMKGIAAGMQNTG | 89800 M⁻¹ s⁻¹ | 263 % wt | 4.496e+06 M⁻¹ s⁻¹ | 50.1 Fold incr. | 184 % wt | 12.6 Fold incr | 5110 µM | 75 % wt | 11.3 Fold incr | 700 µM | 19 % wt | 0.0248 mM | 3.481e+06 M⁻¹ s⁻¹ | 164 % wt | 3300 µM | 825 % wt | increased Ki | better Vmax | increased activation | increased activation
3C2-H4: maize C4 PEPC variant, 6 amino acid substitutions, SEQ ID NO: 12 (protein, shuffled variant) MASTKAPGPGEKHHSIDAQLRQLVPGKVSEDDKLIEYDALLVDRFLNILQDLHGPSLREFVQECYEVSADYEGKGDTTKLGELGAKLTGLAPADAILVASSILHMLNLANLAEEVQIARRRRNSKLKKGGFADEGSATTESDIEETLKRLVSEVGKSPEEVFEALKNQTVDLVFTAHPTQSARRSLLQKNAGIRNCLTQLNAKDITDDDKQELDEALQREIQAAFRTDEIRRAQPTPQDEMRYGMSYIHETVWKGVPKFLRRVDTALKNIGINERLPYNVSLIRFSSWMGGDRDGNPRVTPEVTRDVCLLARMMAANLYIDQIEELMFELSMWRCNDELRVRAEELHSSSGSKVTKYYIEFWKQIPPNEPYRVILGHVRDKLYNTRERARHLLASGVSEISAEASFTSIEEFLEPLELCYKSLCDCGDKAIADGSLLDLLRQVFTFGLSLVKLDIRQESERHTDVIDAITTHLGIGSYREWSEDKRQEWLLSELKGKRPLLPPDLPQTDEIADVIGAFHVLAELPPDSFGPYIISMATAPSDVLAVELLQRECGVRQPLPVVPLFERLADLQSAPASVERLFSVDWYMDRIKGKQQVMVGYSDSGKDAGRLSAAWQLYKAQEEMAQVAKRYGVKLTLFHGRGGTVGRGGGPTHLAILSQPPDTINGSIRVTVQGEVIEFCFGEEHLCFQTLQRFTAATLEHGMHPPVSPKPEWRKLMDEMAVVATEEYRSVVVKEPRFVEYFRSATPETEYGRMNIGSRPAKRRPGGGITTLRAIPWIFSWTQTRFHLPVWLGVGAAFKFAIDKDVKNFQVLKEMYNEWPFFRVTLDLLEMVFAKGDPGIAGLYDELLVAEELKPFGKQLRDKYVETQQLLLQIAGHKDILEGDPFLKQGLVLRNPYITTLNVFQAYTLKRIRDPNFKVTPQPPLSKEFADENKPAGLVKLNPASEYPPGLEDTLILTMKGIAAGMQNTG | 64100 M⁻¹ s⁻¹ | 188 % wt | 3.919e+06 M⁻¹ s⁻¹ | 61.2 Fold incr. | 160 % wt | 7.6 Fold incr | 3020 µM | 44 % wt | 10.3 Fold incr | 560 µM | 16 % wt | 0.026 mM | 3.581e+06 M⁻¹ s⁻¹ | 169 % wt | 1000 µM | 250 % wt | increased Ki | better Vmax | increased activation | increased activation
3C9-C9: maize C4 PEPC variant, 8 amino acid substitutions, SEQ ID NO: 22 (protein, shuffled variant) MASTKAPGPGEKHHSIDAQLRQLVPGKVSEDDKLIEYDALLVDRFLNILQDLHGPSLREFVQECYEVSADYEGKGDTTKLGELGAKLTGLAPADAILVASSILHMLNLANLAEEVQIARRRRNSKLKKGGFADEGSATTESDIEETLKRLVSEVGKSPEEVFEALKNQTVDLVFTAHPTQSARRSLLQKNAGIRNCLTQLNAKDITDDDKQELDEALQREIQAAFRTDEIRRAQPTPQDEMRYGMSYIHETVWKGVPKFLRRVDTALKNIGINERLPYNVSLIRFSSWMGGDRDGNPRVTPEVTRDVCLLARMMAANLYINQIEELMFELSMWRCNDELRVRAEELHSSSGSKVTKYYIEFWKQIPPNEPYRVILGHVRDKLYNTRERARHLLASGVSEISAEASFTSIEEFLEPLELCYKSLCDCGDKAIADGSLLDLLRQVFTFGLSLVKLDIRQESERHTDVIDAITTHLGIGSYREWSEDKRQEWLLSELKGKRPLLPPDLPQTDEIADVIGAFHVLAELPPDSFGPYIISMATAPSDVLAVELLQRECGIKQPLPVVPLFERLADLQSAPASVERLFSVDWYMDRIKGKQQVMVGYSDSGKDAGRLSAAWQLYKAQEEMAQVAKRYGVKLTLFHGRGGTVGRGGGPTHLAILSQPPDTINGSIRVTVQGEVIEFCFGEEHLCFQTLQRFTAATLEHGMHPPVSPKPEWRKLMDEMAVVATEEYRSVVVKEPRFVEYFRSATPETEYGRMNIGSRPAKRRPGGGITTLRAIPWIFSWTQTRFHLPVWLGVGAAFKFAIDKDVRNFQVLKEMYNEWPFFRVTLDLLEMVFAKGDPGIAGLYDELLVAEELKPFGKQLRDKYVETQQLLLQIAGHKDILEGDPFLKQGLVLRNPYITTLNVFQAYTLKRIRDPNFKVTPQPPLSKEFADENKPAGLVKLNPASEYPPGLEDTLILTMKGIAAGMQNTG | 79600 M⁻¹ s⁻¹ | 234 % wt | 3.831e+06 M⁻¹ s⁻¹ | 48.1 Fold incr. | 157 % wt | 11.4 Fold incr | 3850 µM | 57 % wt | 11.5 Fold incr | 760 µM | 21 % wt | 0.021 mM | 3.606e+06 M⁻¹ s⁻¹ | 170 % wt | 2000 µM | 500 % wt | – | – | – | –
